These results are taken from publication PMC13168374, “Reversible DNA condensation drives natural transformation”.

Substitutions are numbered along the chain they refer to.

In data set [1] the target is T1, ComEA deltaL internal_change (Geobacillus stearothermophilus) (UniProt A0A0K9HI54).
T1 sequence: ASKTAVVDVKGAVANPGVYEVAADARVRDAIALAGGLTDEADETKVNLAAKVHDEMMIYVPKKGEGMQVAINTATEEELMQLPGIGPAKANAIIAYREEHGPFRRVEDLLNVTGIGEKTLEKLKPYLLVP
As to the kind of experiment: optical tweezers overstretching. To be noted: FP: 20 mM Tris-HCl pH 7.5, 200 mM KCl, 80 nM DNA, ~20 C (spin at 20 C; read temperature not stated); optical tweezers 23 +/- 1 C, buffer not given in material.

For data set [2], the target named is T2, ComEA (soluble truncation) (Geobacillus stearothermophilus, UniProt A0A0K9HI54 60-207).
T2 sequence: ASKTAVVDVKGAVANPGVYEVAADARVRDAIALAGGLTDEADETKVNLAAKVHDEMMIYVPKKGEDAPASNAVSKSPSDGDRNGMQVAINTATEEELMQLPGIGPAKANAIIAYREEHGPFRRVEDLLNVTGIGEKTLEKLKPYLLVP
The data set can be described thus: optical tweezers overstretching. As to conditions: EC50 of overstretch force increase; Ymax 28.6 pN; 23 C; FP: 20 mM Tris-HCl pH 7.5, 200 mM KCl, 80 nM DNA, ~20 C (spin at 20 C; read temperature not stated); optical tweezers 23 +/- 1 C, buffer not given in material.

Data set [3] concerns the target ComEA LL ins19aa;after;143 (Geobacillus stearothermophilus) (UniProt A0A0K9HI54). The data set can be described thus: optical tweezers overstretching. As to conditions: FP: 20 mM Tris-HCl pH 7.5, 200 mM KCl, 80 nM DNA, ~20 C (spin at 20 C; read temperature not stated); optical tweezers 23 +/- 1 C, buffer not given in material.
Data set [4] concerns the target T3, ComEA A108Y A108Y (Geobacillus stearothermophilus) (UniProt A0A0K9HI54).
T3 sequence: T2 sequence with A49Y
As to the kind of experiment: optical tweezers overstretching. To be noted: EC50 of overstretch force increase; Ymax 12.7 pN; 23 C; FP: 20 mM Tris-HCl pH 7.5, 200 mM KCl, 80 nM DNA, ~20 C (spin at 20 C; read temperature not stated); optical tweezers 23 +/- 1 C, buffer not given in material.

For data set [5], the target named is ComEA from Geobacillus stearothermophilus, soluble truncation lacking the N-terminal sequence (amino acids 60-207) (Geobacillus stearothermophilus).
Data set [6] has the same target. This is another data set of the same source.
Data set [7] shares this target. This is another data set of the same source.
The target of a further data set is T4, ComEA deltaL (Geobacillus stearothermophilus, UniProt A0A0K9HI54 60-124+143-207, internal_change).
T4 sequence: T1 sequence
As to the kind of experiment: fluorescence polarization; Kd within error of ComEA; Hill >1; value in Fig. 5c only; FP: 20 mM Tris-HCl pH 7.5, 200 mM KCl, 80 nM DNA, ~20 C (spin at 20 C; read temperature not stated); optical tweezers 23 +/- 1 C, buffer not given in material. As to conditions: protein: recombinant; label: 3'-fluorescein (36-FAM) on strand 1; blunt.

The target of data set [8] is T2, ComEA (soluble truncation). As to the kind of experiment: fluorescence polarization; Hill coefficient 1.56 +/- 0.28; FP: 20 mM Tris-HCl pH 7.5, 200 mM KCl, 80 nM DNA, ~20 C (spin at 20 C; read temperature not stated); optical tweezers 23 +/- 1 C, buffer not given in material. To be noted: protein: recombinant; label: 3'-fluorescein (36-FAM) on strand 1; blunt. On the technique in general: Polarisation of emitted light reports the rotation of a fluorescent probe.

The next data set addresses T5, ComEA A108Y (Geobacillus stearothermophilus, UniProt A0A0K9HI54 60-207, A108Y).
T5 sequence: T2 sequence with A49Y
The data set can be described thus: fluorescence polarization; Hill coefficient 0.96 +/- 0.16; FP: 20 mM Tris-HCl pH 7.5, 200 mM KCl, 80 nM DNA, ~20 C (spin at 20 C; read temperature not stated); optical tweezers 23 +/- 1 C, buffer not given in material. To be noted: protein: recombinant; label: 3'-fluorescein (36-FAM) on strand 1; blunt.

As to 6 kbp dsDNA (optical tweezers), the K half in data set [1] came to 380 nM; in [2] it was 290 nM; in data set [3] it was 330 nM; in data set [4], 210 nM.
In data set [5], “ComEA from Geobacillus stearothermophilus, soluble truncation lacking the N-terminal sequence (amino acids 60-207) (domain or fragment)” returned a condensation force produced and held for at least 1 s during the 10 s rest phase, optical tweezers, 20 nM-4 µM ComEA (value at 200 nM; buffer alone 0.03 pN) of 0.11 pN. The condensation force from an eWLC fit of the DNA released per cycle against the extension held in the rest phase, optical tweezers in [6] was found to be 0.07 pN. Also, in data set [7], the fold condensation of 5.495 kbp dsDNA (bounding circle radius, negative stain electron microscopy), 200 nM-4 µM ComEA, peak value was 3.5 fold.

B1: 30 bp DNA duplex (dsDNA)
DNA 1: GCACTGTGAATATCACTACAGCAACCTTGA
DNA 2: TCAAGGTTGCTGTAGTGATATTCACAGTGC
What is called Kd is the constant that tells how readily two partners part at equilibrium. On to B1, for which the binding result in the data set with ComEA deltaL is “binds”. In addition, the Kd in data set [8] turned out to be 660 ± 80 nM; with ComEA A108Y, 1910 ± 520 nM.
